According to patent US20210355238A1:

Assays:
[1] = target: Antigen A (multivalent high molecular weight protein); test: Biacore SPR at 25°C; mAb captured on anti-human Fc (236.5±1.0 RU), Antigen A injected at 100 nM
[2] = target: Antigen B (monomeric lower molecular weight protein); test: Biacore SPR at 25°C; mAb captured on anti-human Fc (236.1±0.8 RU), Antigen B injected at 90 nM

Substance: isotype control antibody (CI)
- Antigen A bound - 100 nM (RU) [1]: 18 RU
- Antigen B bound - 90 nM (RU) [2]: 7 RU
